Measured values published in US20200206304A1, “METHODS AND COMPOSITIONS FOR EFFICIENT DELIVERY THROUGH MULTIPLE BIO BARRIERS” (Cedars-Sinai Medical Center, priority 2017, published 2020).
Read-outs that look alike come from different tables or passages of the source. Square brackets hold non-standard residues; d marks the D form. Ends that are not written are not given here.

Experiments:
[1] = Zeta potential measurements (Zetasizer Nano ZS90); format: physicochemical; settings: in PBS; voltage 150 mV
Description: Zeta Potential Measurements: Synthesized conjugates were characterized with respect to their ζ potential using a Zetasizer Nano ZS90 (Malvern Instruments, Malvern, UK). Ten microliter aliquots of nanoconjugate samples were diluted in 0.99 mL PBS, and the voltage applied was 150 mV. Data represent the mean of three measurements±their standard deviation.

amyloid β (Aβ) plaques = amyloid β (Aβ) plaques (UniProt P05067); test: in vivo labelling of Aβ plaques after i.v. injection of rhodamine-labelled conjugate into APPswe/PS1ΔE9 AD mice, dose 8X; fluorescence microscopy of brain sections
Sequence of amyloid β (Aβ) plaques (P05067 672-713): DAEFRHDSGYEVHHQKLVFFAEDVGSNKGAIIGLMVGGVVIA

Aβ plaque = target: T1, Aβ plaque (Homo sapiens, UniProt P05067); test: Percentage of total plaques labeled by mini nanodrugs in AD mice; format: in vivo,  (B6.Cg-Tg (APPswe/PS1ΔE9) 85Dbo/J hemizygous) mice
T1 construct: tissue Jackson Laboratories; host or cells: brain of 6-8 month old APPswe/PS1ΔE9 transgenic mice, plaques labelled in vivo after iv injection and counterstained on sections
T1 sequence (P05067 672-713 limits assumed): as the sequence (P05067 672-713) above
Description: Slides were air dries and fixed using freshly diluted 2% PFA for 5 minutes. The PFA was washed 3 timed with PBS, and brains were covered with 70% EtOH for 5 minutes before washing with dH2O for 2 minutes. 1× Amylo-Glo (Biosenses, #TR-300-AG 100×, diluted with PBS) was then added for 10 minutes. The slides were then washed with PBS (5 minutes) and dH2O (15 seconds) and mounted (Fluoromount-G, No DAPI, Invitrogen), and stored at 4° C. prior to imaging.
Brains were collected and preserved in OTC for immunostaining.

Brain (other hemisphere) = settings: 2 h, PBS background subtracted
[2] = test system: blood-brain barrier (BBB); settings: transgenic mice vs normal mice, doses 2×-8×
Description: AD-Mouse models: 6-8 month old […] (B6.Cg-Tg (APPswe/PS1ΔE9) 85Dbo/J hemizygous) mice were obtained from Jackson Laboratories. Mouse maintenance and experimental procedures followed the guidelines established by the Cedars Sinai Institutional Animal Care and Use Committee (IACUC Protocol #7416). Three to four mice of each sex were used for each experiment. Nanoconjugates were dissolved freshly in PBS (pH 7.4) prior to each experiment and injected intravenously (i.v.) into the lateral tail vein. […] Mice were anesthetized with isoflurane beforehand and their tails were briefly warmed to facilitate injections. The drug injection volume was kept constant at 150 μL. After each injection, mice were promptly returned to their cages. Brains were collected and preserved in OTC for immunostaining.
The brains were harvested and a 14 μm thick slices which were fixed and stained with DAPI to envision the nuclei
A comparison with normal brain was beneficial for understanding of the development of Alzheimer's disease.

glioblastoma GL261 = settings: mouse, in vivo
brain parenchyma = settings: cortex; 0.274 μmol/Kg
Description: To determine how nanoconjugate-associated fluorescence relates to the anatomy of the vasculature, the distance of each analyzed ROI was manually measured from the nearest blood vessel wall (using line tool in FIJI). For tumor bearing mice, 5 images per tumor tissue and 5 per brain tissue were analyzed for each mouse. Intensity values were then plotted against the location of the blood vessel wall and summarized in scatterplots (e.g., FIG. 14B).
Drug concentrations are listed with regard to total nanoconjugate content systemically injected. […] Referring to FIG. 14B, fluorescence measurements were obtained from 10 μm^2-sized regions of interest (ROI) that were randomly overlaid on regions devoid of vasculature shown as yellow squares on photograph 1 of FIG. 14A. Intensity measurements and positions were then obtained for each ROI and plotted against the location of the nearest blood vessel wall. FIG. 14C is set of charts: chart 1—Cortex; chart 2—Midbrain and chart 3 Hippocampus, illustrating average nanoconjugate fluorescence in the brain parenchyma measured following injections at four different drug concentrations. In this figure, fluorescence is shown as relative fluorescence, which is the measured nanoconjugate fluorescence after subtraction of autofluorescence imaged from PBS injected animals using similar acquisition settings.
FIG. 14B explores this relationship in a plot from all of the measurements (for each condition: 4 mice, 3-4 sections with 20 random measurements each). All fluorescence intensity measurements were conducted with 10 μm^2-sized regions of interest placed outside of tomato-lectin stained blood vessels (ROI as in Photograph 1 of FIG. 14A); the positions of these ROIs were then measured against the location of the nearest blood vessel wall to produce the scatterplot in FIG. 14B.
The resulting data were used as a metric to examine how well the mini nanodrug was able to travel from the vessels into the surrounding parenchyma and encounter brain cells. […] Nanoconjugate diffused fluorescence intensity vs. ‘distance from vasculature’ measurements in brain parenchyma of mice injected with nanoconjugates at a dose of 0.274 μmol/Kg. Fluorescence measurements were obtained from […] regions of interest (ROI) that were randomly overlaid on regions devoid of vasculature (shown by yellow squares in FIG. 22A). Intensity measurements and positions were then obtained for each ROI and plotted against the location of the nearest blood vessel wall.

neurons = settings: 0.274 μmol/Kg, vs PBS
brain cells = settings: 0.274 μmol/kg
Description: For the particulate fluorescence analysis, images were converted to binary images, and then 5 ROIs 20*20 μm^2 were drawn per image. The area of each particle on the ROI was measured using the Image) particle analysis tool, where each particle was measured separately. Sizes were then summarized, sorted, and further analyzed using Minitab18 software (Minitab, Inc, State College, Pa., USA). Particulate areas observed between different conditions were compared via a one-way ANOVA combined with post-hoc Tukey tests to test differences between each experimental group.
A more reliable method to separate the particulate from the cellular fluorescence was reasoned to be by adjusting the levels of the image and converting it to a binary image, allowing the detection of only particulates eliminating interference of the diffused background. FIGS. 29A-29D illustrate intracellular fluorescence of mini nanodrugs.
Each ROI was converted to binary (black and white) image and the area and number of particles were quantified. 3 images per brain area were tested for 3 mice per group.
The particle content (example of ROI in FIG. 29A) then was measured. The average size of the particulate fluorescence is a proxy to estimate the intracellular load of fluorescent nanoconjugates following their injections. An example of such an analysis is shown in FIG. 29A: the yellow squares indicate regions of interest that were used to quantify particulate fluorescence. FIGS. 29B-29C summarize the average size of the intracellular fluorescence particles in the cortex ([…]), midbrain (FIG. 29C), and the hippocampus (FIG. 29C).

neurons and astroglia = settings: for % of positive cells, Cortex astroglia: astroglia (GFAP); for % of positive cells, Cortex neurons: neurons (Neun)
Description: Neuronal and glial counterstaining: In FIGS. 27A-27C, brain tissue from drug-injected mice was counterstained to determine if our nanoconjugates are taken up by neurons or glia. Cryosections ([…]) were air-dried for 10 min, fixed with 2% paraformaldehyde for 5 min, and then rinsed three times with PBS. […] The antibodies anti-Neun (Abcam, Cambridge, Mass., USA; AB104225) and anti-GFAP (Neuromics, Edina, Minn., USA; C1122102) were then diluted 1:500 in PBS-T and tissue sections incubated simultaneously with antibody solutions overnight at 4° C. in a humid chamber. Tissue sections were then washed five times with PBS-T and incubated in appropriate secondary antibody diluted 1:250 in PBS-T, for 2-4 h. After five washes in PBS at room temperature, sections were mounted between coverslips in Fluoromount-G with DAPI.
To this end, after systemic injection of our D-conjugates we counterstained brain tissue sections of hippocampus and cortex with anti-Neun to label neurons, and with anti-GFAP to label astroglia (FIGS. 27A-27C) and inspected the stained sections for red fluorescent particulates. […] Positive neurons and glia cells were counted after systemic injection of conjugates containing D1, D3, AC189 peptides, and of a control PBS (FIGS. 27A-27C).

[3] = target: low density lipoprotein receptor-related protein-1 (LRP-1) (mouse (endogenous receptor of the injected BALB/C mice)) (UniProt Q91ZX7); test: cell-based or functional assay
Sequence of low density lipoprotein receptor-related protein-1 (LRP-1) (mouse (endogenous receptor of the injected BALB/C mice)) (Q91ZX7 20-4545): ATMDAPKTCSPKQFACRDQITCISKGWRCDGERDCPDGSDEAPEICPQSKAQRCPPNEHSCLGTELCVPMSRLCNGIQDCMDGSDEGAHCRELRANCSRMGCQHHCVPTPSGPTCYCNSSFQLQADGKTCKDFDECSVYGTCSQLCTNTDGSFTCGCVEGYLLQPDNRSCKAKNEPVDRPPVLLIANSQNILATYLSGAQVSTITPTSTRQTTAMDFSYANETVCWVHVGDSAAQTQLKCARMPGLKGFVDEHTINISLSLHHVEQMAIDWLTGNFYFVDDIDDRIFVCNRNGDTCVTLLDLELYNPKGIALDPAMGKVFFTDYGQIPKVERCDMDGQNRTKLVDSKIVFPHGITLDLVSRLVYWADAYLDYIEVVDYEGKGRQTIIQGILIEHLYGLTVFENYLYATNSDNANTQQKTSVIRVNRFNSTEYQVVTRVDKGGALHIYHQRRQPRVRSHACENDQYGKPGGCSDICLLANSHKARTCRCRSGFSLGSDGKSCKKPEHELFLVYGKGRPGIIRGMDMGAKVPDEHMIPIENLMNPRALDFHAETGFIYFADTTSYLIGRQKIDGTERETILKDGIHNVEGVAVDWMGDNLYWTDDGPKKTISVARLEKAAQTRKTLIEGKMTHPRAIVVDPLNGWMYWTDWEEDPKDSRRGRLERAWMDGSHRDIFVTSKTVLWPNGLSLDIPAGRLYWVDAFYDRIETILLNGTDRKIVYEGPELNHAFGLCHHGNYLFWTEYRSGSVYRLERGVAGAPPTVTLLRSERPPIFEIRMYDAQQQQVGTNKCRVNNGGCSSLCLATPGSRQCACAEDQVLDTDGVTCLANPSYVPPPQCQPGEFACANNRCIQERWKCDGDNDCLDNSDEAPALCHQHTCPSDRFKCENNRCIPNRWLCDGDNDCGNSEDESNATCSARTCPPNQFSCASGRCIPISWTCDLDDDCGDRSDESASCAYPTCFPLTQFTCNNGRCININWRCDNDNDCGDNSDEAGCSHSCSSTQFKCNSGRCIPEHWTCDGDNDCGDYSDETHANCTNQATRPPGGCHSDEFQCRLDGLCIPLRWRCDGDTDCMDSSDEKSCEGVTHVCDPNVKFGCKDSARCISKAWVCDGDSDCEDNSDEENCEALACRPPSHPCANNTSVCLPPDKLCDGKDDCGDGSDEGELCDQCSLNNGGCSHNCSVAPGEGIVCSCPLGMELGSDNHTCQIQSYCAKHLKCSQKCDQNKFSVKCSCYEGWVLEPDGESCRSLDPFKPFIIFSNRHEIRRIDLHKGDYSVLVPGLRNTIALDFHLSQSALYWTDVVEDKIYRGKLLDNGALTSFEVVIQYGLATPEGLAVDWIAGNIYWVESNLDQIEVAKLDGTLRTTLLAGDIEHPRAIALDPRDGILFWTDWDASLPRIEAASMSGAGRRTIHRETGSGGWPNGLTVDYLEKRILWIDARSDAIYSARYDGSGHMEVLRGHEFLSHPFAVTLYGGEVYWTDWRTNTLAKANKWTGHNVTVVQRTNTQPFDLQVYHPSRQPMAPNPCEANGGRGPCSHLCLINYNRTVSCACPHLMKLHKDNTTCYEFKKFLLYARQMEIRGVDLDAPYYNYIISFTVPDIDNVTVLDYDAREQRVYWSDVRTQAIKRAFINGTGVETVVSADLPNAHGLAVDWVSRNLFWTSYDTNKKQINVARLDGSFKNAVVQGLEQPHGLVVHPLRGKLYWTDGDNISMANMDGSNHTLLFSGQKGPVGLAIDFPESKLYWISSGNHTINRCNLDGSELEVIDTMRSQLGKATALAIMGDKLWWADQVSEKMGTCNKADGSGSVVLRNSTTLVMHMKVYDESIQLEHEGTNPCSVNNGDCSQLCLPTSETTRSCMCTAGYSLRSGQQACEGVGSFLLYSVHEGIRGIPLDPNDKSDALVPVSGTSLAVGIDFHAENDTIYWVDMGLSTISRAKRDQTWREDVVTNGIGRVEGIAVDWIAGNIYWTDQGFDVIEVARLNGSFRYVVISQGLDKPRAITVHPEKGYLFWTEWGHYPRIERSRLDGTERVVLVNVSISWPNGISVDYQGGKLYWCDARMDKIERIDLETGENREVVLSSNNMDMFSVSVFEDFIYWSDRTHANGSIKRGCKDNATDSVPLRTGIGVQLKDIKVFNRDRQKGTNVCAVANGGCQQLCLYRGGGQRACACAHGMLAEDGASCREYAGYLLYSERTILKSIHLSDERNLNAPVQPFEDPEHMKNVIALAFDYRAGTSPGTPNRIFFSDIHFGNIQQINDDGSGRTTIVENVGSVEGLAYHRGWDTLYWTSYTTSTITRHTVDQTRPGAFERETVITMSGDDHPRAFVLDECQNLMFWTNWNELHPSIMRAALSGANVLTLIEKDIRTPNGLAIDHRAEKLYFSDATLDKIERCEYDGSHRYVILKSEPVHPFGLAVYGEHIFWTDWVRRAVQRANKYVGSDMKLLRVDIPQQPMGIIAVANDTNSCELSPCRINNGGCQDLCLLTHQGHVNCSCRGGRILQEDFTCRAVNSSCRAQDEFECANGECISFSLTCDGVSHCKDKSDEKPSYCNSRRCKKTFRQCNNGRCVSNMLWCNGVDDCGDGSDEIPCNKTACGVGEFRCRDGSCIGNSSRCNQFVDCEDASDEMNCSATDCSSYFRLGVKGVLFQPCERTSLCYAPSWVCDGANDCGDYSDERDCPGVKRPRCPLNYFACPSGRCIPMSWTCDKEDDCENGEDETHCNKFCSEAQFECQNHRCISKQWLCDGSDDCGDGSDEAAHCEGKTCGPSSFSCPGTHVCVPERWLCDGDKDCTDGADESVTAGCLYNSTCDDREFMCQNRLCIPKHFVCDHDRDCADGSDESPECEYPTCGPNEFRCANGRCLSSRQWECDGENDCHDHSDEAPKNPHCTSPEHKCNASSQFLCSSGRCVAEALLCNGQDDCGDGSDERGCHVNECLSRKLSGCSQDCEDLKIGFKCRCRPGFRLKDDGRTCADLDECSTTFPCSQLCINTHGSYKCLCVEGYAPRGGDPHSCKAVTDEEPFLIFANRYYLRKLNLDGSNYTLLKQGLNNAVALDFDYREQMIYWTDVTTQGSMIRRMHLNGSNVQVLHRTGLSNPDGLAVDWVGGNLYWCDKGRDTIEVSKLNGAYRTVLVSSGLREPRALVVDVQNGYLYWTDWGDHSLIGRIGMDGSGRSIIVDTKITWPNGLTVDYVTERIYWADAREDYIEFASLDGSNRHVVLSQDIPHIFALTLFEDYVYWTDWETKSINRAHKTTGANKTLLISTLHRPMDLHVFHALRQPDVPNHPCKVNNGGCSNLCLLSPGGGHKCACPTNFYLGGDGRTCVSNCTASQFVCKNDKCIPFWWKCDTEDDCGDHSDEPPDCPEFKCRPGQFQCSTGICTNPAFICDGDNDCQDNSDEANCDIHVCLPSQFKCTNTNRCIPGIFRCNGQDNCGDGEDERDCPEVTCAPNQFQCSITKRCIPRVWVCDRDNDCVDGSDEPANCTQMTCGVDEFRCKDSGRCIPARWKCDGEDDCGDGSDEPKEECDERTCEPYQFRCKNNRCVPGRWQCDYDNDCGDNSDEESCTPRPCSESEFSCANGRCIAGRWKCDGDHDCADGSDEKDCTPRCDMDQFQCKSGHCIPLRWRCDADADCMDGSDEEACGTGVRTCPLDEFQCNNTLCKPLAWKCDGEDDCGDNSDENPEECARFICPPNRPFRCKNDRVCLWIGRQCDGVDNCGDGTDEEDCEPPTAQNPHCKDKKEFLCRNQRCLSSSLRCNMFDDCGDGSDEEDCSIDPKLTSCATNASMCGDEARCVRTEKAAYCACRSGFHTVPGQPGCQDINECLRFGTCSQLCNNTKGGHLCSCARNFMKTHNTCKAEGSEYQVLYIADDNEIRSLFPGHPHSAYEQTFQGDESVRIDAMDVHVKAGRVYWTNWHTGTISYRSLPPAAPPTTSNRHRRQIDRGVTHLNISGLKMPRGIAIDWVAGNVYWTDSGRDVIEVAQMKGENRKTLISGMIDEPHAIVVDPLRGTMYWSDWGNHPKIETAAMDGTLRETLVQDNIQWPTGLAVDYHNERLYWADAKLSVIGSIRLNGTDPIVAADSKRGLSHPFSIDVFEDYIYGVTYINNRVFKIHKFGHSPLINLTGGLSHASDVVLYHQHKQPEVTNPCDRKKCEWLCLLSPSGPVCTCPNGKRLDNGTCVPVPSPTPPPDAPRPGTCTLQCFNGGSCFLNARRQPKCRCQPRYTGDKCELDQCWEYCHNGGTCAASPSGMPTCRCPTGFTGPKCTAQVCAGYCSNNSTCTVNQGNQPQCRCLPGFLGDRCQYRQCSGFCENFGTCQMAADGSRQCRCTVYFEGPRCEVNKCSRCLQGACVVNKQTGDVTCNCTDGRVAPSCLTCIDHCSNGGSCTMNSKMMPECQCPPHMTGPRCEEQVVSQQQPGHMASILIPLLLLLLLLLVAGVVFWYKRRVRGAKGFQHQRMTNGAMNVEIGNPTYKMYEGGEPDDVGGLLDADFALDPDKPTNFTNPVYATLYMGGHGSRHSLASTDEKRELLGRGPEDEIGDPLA

[4] = injected dose 8X (0.55 μmol/Kg)

## PMLA/LLL/AP2/Miniap4/rhodamine [P/LLL/AP2/M4]
[1]
  ζ potential: −5.5 mV

## PMLA/LLL/AP2/rhodamine
Amyloid β (Aβ) plaques
  Percentage of total plaques labeled by the reagents: 1.23%

## PMLA/LLL/B6/rhodamine
Amyloid β (Aβ) plaques
  Percentage of total plaques labeled by the reagents: 3.3%

## PMLA/LLL/B6/rhodamine (peptide 1 CGHKAKGPRK; peptide 2 Leu-Leu-Leu; also: conjugated to polymalic acid (PMLA), rhodamine label) [P/LLL/B6]
Aβ plaque; [4]
  Percentage of total plaques labeled by the reagents: 3.3%
[1]
  ζ potential: −6.1 mV
Brain (other hemisphere); dose 1X
  Brain (other hemisphere) fluorescence: 1.2
Brain (other hemisphere); dose 4X
  Brain (other hemisphere) fluorescence: 6.8
[2]
  BBB permeation efficacy in AD brain (in words): A decrease was not observed
Glioblastoma GL261
  dose-dependent change of tumor fluorescence between 1× and 4×: 23 fold

## PMLA/LLL/D1/rhodamine (peptide 1 QSHYRHISPAQVC; peptide 2 Leu-Leu-Leu; not fully specified) [P/LLL/D1]
Brain parenchyma
  cortex Y intercepts of fluorescence vs distance curves (exponential fits): 21.6
Aβ plaque; [4]
  Percentage of total plaques labeled by the reagents: 0%
Brain (other hemisphere); dose 4X
  Brain (other hemisphere) fluorescence: 5.3
neurons
  average fluorescence per neuron nucleus (in words): significantly higher than for PBS
Brain cells
  increase of particle diameter in comparison with PBS: 2.5 fold
Neurons and astroglia
  #Labeled/#total counted cells, Cortex astroglia: [5/40]
  % of positive cells, Cortex astroglia: 12.5%
  #Labeled/#total counted cells, Cortex neurons: [119/141]
  % of positive cells, Cortex neurons: 84.4%
  #Labeled/#total counted cells, Hippocampus astroglia: [4/57]
  % of positive cells, Hippocampus astroglia: 7.0%
  #Labeled/#total counted cells, Hippocampus neurons: [286/433]
  % of positive cells, Hippocampus neurons: 66.0%
Glioblastoma GL261
  Tumor fluorescence: 86.6
  ratio Tumor/Brain: 16.4

## PMLA/LLL/D3/rhodamine (peptide 1 RPRTRLHTHRNRC; peptide 2 Leu-Leu-Leu; not fully specified (some residues)) [P/LLL/D3]
Brain parenchyma
  cortex Y intercepts of fluorescence vs distance curves (exponential fits): 21.1
Aβ plaque; injected dose 2X
  Percentage of total plaques labeled by the reagents: 0% all in a single box
Aβ plaque; injected dose 4X
  Percentage of total plaques labeled by the reagents: 0%
Aβ plaque; injected dose 6X
  Percentage of total plaques labeled by the reagents: 0%
Aβ plaque; [4]
  Percentage of total plaques labeled by the reagents: 21.1%
Brain (other hemisphere); dose 4X
  Brain (other hemisphere) fluorescence: 7.8
neurons
  average fluorescence per neuron nucleus (in words): significantly higher than for PBS
Brain cells
  increase of particle diameter in comparison with PBS: 2.5 fold
Neurons and astroglia
  #Labeled/#total counted cells, Cortex astroglia: [7/46]
  % of positive cells, Cortex astroglia: 15.2%
  #Labeled/#total counted cells, Cortex neurons: [286/300]
  % of positive cells, Cortex neurons: 95.3%
  #Labeled/#total counted cells, Hippocampus astroglia: [14/47]
  % of positive cells, Hippocampus astroglia: 29.8%
  #Labeled/#total counted cells, Hippocampus neurons: [894/967]
  % of positive cells, Hippocampus neurons: 92.45%
Glioblastoma GL261
  Tumor fluorescence: 92.6
  ratio Tumor/Brain: 11.9

## PMLA/LLL/M4/rhodamine (peptide 1 KAPETALD; peptide 2 Leu-Leu-Leu; not fully specified) [P/LLL/M4]
Aβ plaque; [4]
  Percentage of total plaques labeled by the reagents: 0%
[1]
  ζ potential: −10.4 mV
Brain (other hemisphere); dose 4X
  Brain (other hemisphere) fluorescence: 3.8
Glioblastoma GL261
  Tumor fluorescence: 86.2
  ratio Tumor/Brain: 22.8

## PMLA/LLL/rhodamine
Amyloid β (Aβ) plaques
  Percentage of total plaques labeled by the reagents: 4.5%

## PMLA/LLL/rhodamine (Leu-Leu-Leu; also: conjugated to PMLA with rhodamine, link not given here) [P/LLL, polymalic acid with tri-leucine (40%) and rhodamine]
Aβ plaque; [4]
  Percentage of total plaques labeled by the reagents: 4.5%

## PMLA/M4/rhodamine (KAPETALD; not fully specified) [P/M4]
[1]
  ζ potential: −14.6 mV

B1: PMLA/LLL/D1/rhodamine (peptide)
peptide 1: [dQ][dS][dH][dY][dR][dH][dI][dS][dP][dA][dQ][dV]C
peptide 2: Leu-Leu-Leu
modifications: not fully specified (some residues, N-terminus); also: LLL amide-linked to PMLA carboxylates
[3]
  P/LLL/D1/rh fluorescence intensity in the brain parenchyma (BBB crossing) on co-injection of a 70-fold molar excess of AP2: 54.5%
  P/LLL/D1/rh fluorescence intensity in the parenchyma (transcytosis) with 21 µmol/kg free AP2: 50%
